According to patent publication US20220227830A1, “QD DOSING OF GIP RECEPTOR AGONIST PEPTIDE COMPOUNDS AND USES THEREOF” (Takeda Pharmaceutical Company Limited, priority 2020, published 2022):
Starred links: 1 amine or outer side, 2 acyl side, 3 side chain; linkers in the order of their positions; H or OH if unused. Non-standard residues stand in square brackets, D forms with d. Groups on a side chain read outwards from the residue. No end group written: not given here. *: point of attachment. 2OEGgEgE‑C15DA = 2OEGgEgE-C15 diacid linker-lipid on the Lys side chain, O=C(O)CCCCCCCCCCCCCC(=O)N[C@@H](CCC(=O)N[C@@H](CCC(=O)NCCOCCOCC(=O)NCCOCCOCC(=O)*)C(=O)O)C(=O)O; 2OEGgE‑C16DA = O=C(O)CCCCCCCCCCCCCCC(=O)N[C@@H](CCC(=O)NCCOCCOCC(=O)NCCOCCOCC(=O)*)C(=O)O; C15 diacid = O=C(O)CCCCCCCCCCCCCC(=O)*; γGlu = O=C(O)[C@H](CCC(=O)[*:2])N[*:1]; NMeY = CN[C@@H](Cc1ccc(O)cc1)C(=O)O; AEEA = NCCOCCOCC(=O)O; Aib = CC(C)(N)C(=O)O

T1: full-length human GIPR with an N-terminal FLAG tag (human, UniProt P48546 22-466)
T1 sequence (looked up): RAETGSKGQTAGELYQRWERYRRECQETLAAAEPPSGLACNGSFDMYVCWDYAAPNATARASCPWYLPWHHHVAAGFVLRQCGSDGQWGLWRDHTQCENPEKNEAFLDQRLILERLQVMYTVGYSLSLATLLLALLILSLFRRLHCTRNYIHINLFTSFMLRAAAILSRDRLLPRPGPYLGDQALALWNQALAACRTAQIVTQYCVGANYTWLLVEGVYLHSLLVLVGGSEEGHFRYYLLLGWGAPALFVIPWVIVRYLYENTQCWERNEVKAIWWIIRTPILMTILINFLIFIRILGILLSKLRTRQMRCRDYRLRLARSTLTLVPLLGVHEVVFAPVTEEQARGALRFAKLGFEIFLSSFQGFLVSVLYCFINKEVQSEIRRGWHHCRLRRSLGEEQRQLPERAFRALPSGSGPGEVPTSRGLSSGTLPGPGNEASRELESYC

B1: Compound 112 (peptide)
peptide: [NMeY][Aib]EGTFISDYSI[Aib]LDR[Aib]AQ[Aib]K([AEEA-γGlu-γGlu-γGlu-C15 diacid])FVNWLLAQK-NH2
modifications: N-terminus assumed
SMILES: CC[C@H](C)[C@H](NC(=O)[C@H](Cc1ccccc1)NC(=O)[C@@H](NC(=O)CNC(=O)[C@H](CCC(=O)O)NC(=O)C(C)(C)NC(=O)[C@H](Cc1ccc(O)cc1)NC)[C@@H](C)O)C(=O)N[C@@H](CO)C(=O)N[C@@H](CC(=O)O)C(=O)N[C@@H](Cc1ccc(O)cc1)C(=O)N[C@@H](CO)C(=O)N[C@H](C(=O)NC(C)(C)C(=O)N[C@@H](CC(C)C)C(=O)N[C@@H](CC(=O)O)C(=O)N[C@@H](CCCNC(=N)N)C(=O)NC(C)(C)C(=O)N[C@@H](C)C(=O)N[C@@H](CCC(N)=O)C(=O)NC(C)(C)C(=O)N[C@@H](CCCCNC(=O)COCCOCCNC(=O)CC[C@H](NC(=O)CC[C@H](NC(=O)CC[C@H](NC(=O)CCCCCCCCCCCCCC(=O)O)C(=O)O)C(=O)O)C(=O)O)C(=O)N[C@@H](Cc1ccccc1)C(=O)N[C@H](C(=O)N[C@@H](CC(N)=O)C(=O)N[C@@H](Cc1c[nH]c2ccccc12)C(=O)N[C@@H](CC(C)C)C(=O)N[C@@H](CC(C)C)C(=O)N[C@@H](C)C(=O)N[C@@H](CCC(N)=O)C(=O)N[C@@H](CCCCN)C(N)=O)C(C)C)[C@@H](C)CC
B2: Compound 118 (peptide)
peptide: [NMeY][Aib]EGTFISDYSI[Aib]LDR[Aib]K([AEEA-AEEA-γGlu-C15 diacid])Q[Aib]DFVNWLLAQR-NH2
modifications: N-terminus assumed
SMILES: CC[C@H](C)[C@H](NC(=O)[C@H](Cc1ccccc1)NC(=O)[C@@H](NC(=O)CNC(=O)[C@H](CCC(=O)O)NC(=O)C(C)(C)NC(=O)[C@H](Cc1ccc(O)cc1)NC)[C@@H](C)O)C(=O)N[C@@H](CO)C(=O)N[C@@H](CC(=O)O)C(=O)N[C@@H](Cc1ccc(O)cc1)C(=O)N[C@@H](CO)C(=O)N[C@H](C(=O)NC(C)(C)C(=O)N[C@@H](CC(C)C)C(=O)N[C@@H](CC(=O)O)C(=O)N[C@@H](CCCNC(=N)N)C(=O)NC(C)(C)C(=O)N[C@@H](CCCCNC(=O)COCCOCCNC(=O)COCCOCCNC(=O)CC[C@H](NC(=O)CCCCCCCCCCCCCC(=O)O)C(=O)O)C(=O)N[C@@H](CCC(N)=O)C(=O)NC(C)(C)C(=O)N[C@@H](CC(=O)O)C(=O)N[C@@H](Cc1ccccc1)C(=O)N[C@H](C(=O)N[C@@H](CC(N)=O)C(=O)N[C@@H](Cc1c[nH]c2ccccc12)C(=O)N[C@@H](CC(C)C)C(=O)N[C@@H](CC(C)C)C(=O)N[C@@H](C)C(=O)N[C@@H](CCC(N)=O)C(=O)N[C@@H](CCCNC(=N)N)C(N)=O)C(C)C)[C@@H](C)CC
B3: Compound 115 (peptide)
peptide: [NMeY][Aib]EGTFISDYSI[Aib]K([AEEA-γGlu-γGlu-γGlu-C15 diacid])DR[Aib]AQ[Aib]NFVNWLLAQR-NH2
modifications: N-terminus assumed
SMILES: CC[C@H](C)[C@H](NC(=O)[C@H](Cc1ccccc1)NC(=O)[C@@H](NC(=O)CNC(=O)[C@H](CCC(=O)O)NC(=O)C(C)(C)NC(=O)[C@H](Cc1ccc(O)cc1)NC)[C@@H](C)O)C(=O)N[C@@H](CO)C(=O)N[C@@H](CC(=O)O)C(=O)N[C@@H](Cc1ccc(O)cc1)C(=O)N[C@@H](CO)C(=O)N[C@H](C(=O)NC(C)(C)C(=O)N[C@@H](CCCCNC(=O)COCCOCCNC(=O)CC[C@H](NC(=O)CC[C@H](NC(=O)CC[C@H](NC(=O)CCCCCCCCCCCCCC(=O)O)C(=O)O)C(=O)O)C(=O)O)C(=O)N[C@@H](CC(=O)O)C(=O)N[C@@H](CCCNC(=N)N)C(=O)NC(C)(C)C(=O)N[C@@H](C)C(=O)N[C@@H](CCC(N)=O)C(=O)NC(C)(C)C(=O)N[C@@H](CC(N)=O)C(=O)N[C@@H](Cc1ccccc1)C(=O)N[C@H](C(=O)N[C@@H](CC(N)=O)C(=O)N[C@@H](Cc1c[nH]c2ccccc12)C(=O)N[C@@H](CC(C)C)C(=O)N[C@@H](CC(C)C)C(=O)N[C@@H](C)C(=O)N[C@@H](CCC(N)=O)C(=O)N[C@@H](CCCNC(=N)N)C(N)=O)C(C)C)[C@@H](C)CC
B4: Compound 108 (peptide)
peptide: [NMeY][Aib]EGTFISDYSI[Aib]LDR[Aib]AQ[Aib]K(2OEGgEgE‑C15DA)FVNWLLAQR-NH2
modifications: N-terminus assumed
SMILES: CC[C@H](C)[C@H](NC(=O)[C@H](Cc1ccccc1)NC(=O)[C@@H](NC(=O)CNC(=O)[C@H](CCC(=O)O)NC(=O)C(C)(C)NC(=O)[C@H](Cc1ccc(O)cc1)NC)[C@@H](C)O)C(=O)N[C@@H](CO)C(=O)N[C@@H](CC(=O)O)C(=O)N[C@@H](Cc1ccc(O)cc1)C(=O)N[C@@H](CO)C(=O)N[C@H](C(=O)NC(C)(C)C(=O)N[C@@H](CC(C)C)C(=O)N[C@@H](CC(=O)O)C(=O)N[C@@H](CCCNC(=N)N)C(=O)NC(C)(C)C(=O)N[C@@H](C)C(=O)N[C@@H](CCC(N)=O)C(=O)NC(C)(C)C(=O)N[C@@H](CCCCNC(=O)COCCOCCNC(=O)COCCOCCNC(=O)CC[C@H](NC(=O)CC[C@H](NC(=O)CCCCCCCCCCCCCC(=O)O)C(=O)O)C(=O)O)C(=O)N[C@@H](Cc1ccccc1)C(=O)N[C@H](C(=O)N[C@@H](CC(N)=O)C(=O)N[C@@H](Cc1c[nH]c2ccccc12)C(=O)N[C@@H](CC(C)C)C(=O)N[C@@H](CC(C)C)C(=O)N[C@@H](C)C(=O)N[C@@H](CCC(N)=O)C(=O)N[C@@H](CCCNC(=N)N)C(N)=O)C(C)C)[C@@H](C)CC
B5: Compound 116 (peptide)
peptide: [NMeY][Aib]EGTFISDYSI[Aib]K([AEEA-AEEA-γGlu-C15 diacid])DR[Aib]AQ[Aib]DFVNWLLAQRPSSGAPPPS-NH2
modifications: N-terminus assumed
SMILES: CC[C@H](C)[C@H](NC(=O)[C@H](Cc1ccccc1)NC(=O)[C@@H](NC(=O)CNC(=O)[C@H](CCC(=O)O)NC(=O)C(C)(C)NC(=O)[C@H](Cc1ccc(O)cc1)NC)[C@@H](C)O)C(=O)N[C@@H](CO)C(=O)N[C@@H](CC(=O)O)C(=O)N[C@@H](Cc1ccc(O)cc1)C(=O)N[C@@H](CO)C(=O)N[C@H](C(=O)NC(C)(C)C(=O)N[C@@H](CCCCNC(=O)COCCOCCNC(=O)COCCOCCNC(=O)CC[C@H](NC(=O)CCCCCCCCCCCCCC(=O)O)C(=O)O)C(=O)N[C@@H](CC(=O)O)C(=O)N[C@@H](CCCNC(=N)N)C(=O)NC(C)(C)C(=O)N[C@@H](C)C(=O)N[C@@H](CCC(N)=O)C(=O)NC(C)(C)C(=O)N[C@@H](CC(=O)O)C(=O)N[C@@H](Cc1ccccc1)C(=O)N[C@H](C(=O)N[C@@H](CC(N)=O)C(=O)N[C@@H](Cc1c[nH]c2ccccc12)C(=O)N[C@@H](CC(C)C)C(=O)N[C@@H](CC(C)C)C(=O)N[C@@H](C)C(=O)N[C@@H](CCC(N)=O)C(=O)N[C@@H](CCCNC(=N)N)C(=O)N1CCC[C@H]1C(=O)N[C@@H](CO)C(=O)N[C@@H](CO)C(=O)NCC(=O)N[C@@H](C)C(=O)N1CCC[C@H]1C(=O)N1CCC[C@H]1C(=O)N1CCC[C@H]1C(=O)N[C@@H](CO)C(N)=O)C(C)C)[C@@H](C)CC

biological target: full-length human GLP-1R with an N-terminal FLAG tag (human, UniProt P43220 24-463); test: cell-based or functional assay

Binder | Human GLP1R cAMP HEK293T EC50 [nM]
[NMeY][Aib]EGTFISDYSI[Aib]LDR[Aib]AQ[Aib]KFVNWLLAQRGGGGS-NH2 (not fully specified (residue 21)) [Compound 114] | 115
B1 | 12
[NMeY][Aib]EGTFISDYSIALDR[Aib]AQ[Aib]KFVNWLLAQR-NH2 (not fully specified (residue 21)) [Compound 121] | 5.5
B2 | 525
[NMeY][Aib]EGTFISDYSIAK(2OEGgE‑C16DA)DR[Aib]AQ[Aib]NFVNWLLAQK [Compound 11] | 145
B3 | 437
B4 | 41.7
[NMeY][Aib]EGTFISDYSI[Aib]LDR[Aib]KQ[Aib]DFVNWLLAQR-NH2 (not fully specified (residue 18)) [Compound 117] | 1000
[NMeY][Aib]EGTFISDYSIALDRIHQ[Aib]NFVNWLLK(2OEGgE‑C16DA)QK [Compound 10] | 955
B5 | 339
[NMeY][Aib]EGTFISDYSIALDR[Aib]KQ[Aib]NFVNWLLAQSPSSGAPPPS-NH2 (not fully specified (residue 18, N-terminus)) [Compound 119] | 1000
[NMeY][Aib]EGTFISDYSIALDR[Aib]AQ[Aib]DFVNWLLAK(2OEGgE‑C15DA)RPSSGAPPPS-NH2 [Compound 109] | 832

biological target: T1, full-length human GIPR with an …; test: cell-based or functional assay

Binder | Human GIPR cAMP, HEK293T EC50 [nM]
[NMeY][Aib]EGTFISDYSI[Aib]LDR[Aib]AQ[Aib]KFVNWLLAQRGGGGS-NH2 (not fully specified (residue 21)) [Compound 114] | 0.0007
B1 | 0.0004
[NMeY][Aib]EGTFISDYSIALDR[Aib]AQ[Aib]KFVNWLLAQR-NH2 (not fully specified (residue 21)) [Compound 121] | 0.0003
B2 | 0.0009
[NMeY][Aib]EGTFISDYSIAK(2OEGgE‑C16DA)DR[Aib]AQ[Aib]NFVNWLLAQK [Compound 11] | 0.0003
B3 | 0.0005
B4 | 0.0005
[NMeY][Aib]EGTFISDYSI[Aib]LDR[Aib]KQ[Aib]DFVNWLLAQR-NH2 (not fully specified (residue 18)) [Compound 117] | 0.0006
[NMeY][Aib]EGTFISDYSIALDRIHQ[Aib]NFVNWLLK(2OEGgE‑C16DA)QK [Compound 10] | 0.0006
B5 | 0.0003
[NMeY][Aib]EGTFISDYSIALDR[Aib]KQ[Aib]NFVNWLLAQSPSSGAPPPS-NH2 (not fully specified (residue 18, N-terminus)) [Compound 119] | 0.0005
[NMeY][Aib]EGTFISDYSIALDR[Aib]AQ[Aib]DFVNWLLAK(2OEGgE‑C15DA)RPSSGAPPPS-NH2 [Compound 109] | 0.0005
